# Measured values: the supplement of paper PMC9112550, “Optimization of the antimicrobial peptide Bac7 by deep mutational scanning” (BMC Biology, 2022)
# Tested on: Escherichia coli TOP10
# Test: shrunken log2 fold change of peptide-encoding DNA abundance (4.5 h post-induction vs induction); higher = less antimicrobial activity (less host growth inhibition)
# Details: time post-induction: 4.5 h; library: site-saturation at positions 5, 18, 19, 20
# 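Note: peptides expressed intracellularly from a pBAD plasmid library in pooled LB shake-flask culture, induced with 0.3% L-arabinose, DNA abundance read by NGS, three biological replicates, DESeq2 with apeglm shrinkage.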
sequence,measurement,value
RRIRMRPPRLPRPRPRPATTPRP,shrunken log2 fold change,0.538
RRIRQRPPRLPRPRPRPFAGPRP,shrunken log2 fold change,0.0242
RRIRPRPPRLPRPRPRPHEQPRP,shrunken log2 fold change,0.0602
RRIRERPPRLPRPRPRPEHEPRP,shrunken log2 fold change,-0.0139
RRIRYRPPRLPRPRPRPKLAPRP,shrunken log2 fold change,-0.0901
RRIRLRPPRLPRPRPRPRCFPRP,shrunken log2 fold change,-0.0548
RRIRARPPRLPRPRPRPHQIPRP,shrunken log2 fold change,0.354
RRIRDRPPRLPRPRPRPVNWPRP,shrunken log2 fold change,0.188
RRIRRRPPRLPRPRPRPVQVPRP,shrunken log2 fold change,0.189
RRIRKRPPRLPRPRPRPPRRPRP,shrunken log2 fold change,1.04
RRIRARPPRLPRPRPRPSNSPRP,shrunken log2 fold change,-0.156
RRIRWRPPRLPRPRPRPMSCPRP,shrunken log2 fold change,-0.256
RRIRTRPPRLPRPRPRPQITPRP,shrunken log2 fold change,-0.474
RRIRCRPPRLPRPRPRPYMHPRP,shrunken log2 fold change,-0.31
RRIRSRPPRLPRPRPRPQVWPRP,shrunken log2 fold change,0.675
RRIRRRPPRLPRPRPRPFFYPRP,shrunken log2 fold change,0.0607
RRIRDRPPRLPRPRPRPPLWPRP,shrunken log2 fold change,0.228
RRIRPRPPRLPRPRPRPLEVPRP,shrunken log2 fold change,-0.007
RRIRNRPPRLPRPRPRPNVGPRP,shrunken log2 fold change,-0.183
RRIRSRPPRLPRPRPRPDDGPRP,shrunken log2 fold change,0.00408
RRIRLRPPRLPRPRPRPGWEPRP,shrunken log2 fold change,0.14
RRIRLRPPRLPRPRPRPYRSPRP,shrunken log2 fold change,-0.0017
RRIRMRPPRLPRPRPRPPVSPRP,shrunken log2 fold change,1.27
RRIRIRPPRLPRPRPRPVIHPRP,shrunken log2 fold change,-0.248
RRIRIRPPRLPRPRPRPQCCPRP,shrunken log2 fold change,-0.0258
RRIRCRPPRLPRPRPRPHLTPRP,shrunken log2 fold change,-0.229
RRIRDRPPRLPRPRPRPATDPRP,shrunken log2 fold change,0.0254
RRIRWRPPRLPRPRPRPYKSPRP,shrunken log2 fold change,-0.144
RRIRKRPPRLPRPRPRPPWWPRP,shrunken log2 fold change,0.777
RRIRARPPRLPRPRPRPHNTPRP,shrunken log2 fold change,-0.235
RRIRARPPRLPRPRPRPDDDPRP,shrunken log2 fold change,0.257
RRIRCRPPRLPRPRPRPTIIPRP,shrunken log2 fold change,-0.343
RRIRTRPPRLPRPRPRPINKPRP,shrunken log2 fold change,-0.322
RRIRIRPPRLPRPRPRPHPFPRP,shrunken log2 fold change,-0.583
RRIRQRPPRLPRPRPRPCHYPRP,shrunken log2 fold change,-0.000921
RRIRFRPPRLPRPRPRPTCLPRP,shrunken log2 fold change,-0.249
RRIRHRPPRLPRPRPRPESIPRP,shrunken log2 fold change,-0.107
RRIRGRPPRLPRPRPRPQVQPRP,shrunken log2 fold change,0.273
RRIRKRPPRLPRPRPRPTANPRP,shrunken log2 fold change,0.863
RRIRQRPPRLPRPRPRPIHSPRP,shrunken log2 fold change,-0.138
RRIRPRPPRLPRPRPRPKTQPRP,shrunken log2 fold change,-0.02
RRIRCRPPRLPRPRPRPEGNPRP,shrunken log2 fold change,-0.0225
RRIRGRPPRLPRPRPRPEVVPRP,shrunken log2 fold change,0.918
RRIRFRPPRLPRPRPRPKNMPRP,shrunken log2 fold change,-0.724
RRIRRRPPRLPRPRPRPCFAPRP,shrunken log2 fold change,0.442
RRIRYRPPRLPRPRPRPNFCPRP,shrunken log2 fold change,-0.00468
RRIRPRPPRLPRPRPRPMEWPRP,shrunken log2 fold change,-0.0225
RRIRKRPPRLPRPRPRPSRTPRP,shrunken log2 fold change,0.391
RRIRMRPPRLPRPRPRPAHAPRP,shrunken log2 fold change,1.16
RRIRERPPRLPRPRPRPFKNPRP,shrunken log2 fold change,-0.174
RRIRIRPPRLPRPRPRPQGIPRP,shrunken log2 fold change,-0.012
RRIRMRPPRLPRPRPRPVTMPRP,shrunken log2 fold change,0.116
RRIRMRPPRLPRPRPRPTMSPRP,shrunken log2 fold change,-0.148
RRIRMRPPRLPRPRPRPPYPPRP,shrunken log2 fold change,0.134
RRIRPRPPRLPRPRPRPMPFPRP,shrunken log2 fold change,-0.349
RRIRERPPRLPRPRPRPTMKPRP,shrunken log2 fold change,-0.0369
RRIRTRPPRLPRPRPRPQAPPRP,shrunken log2 fold change,-0.1
RRIRPRPPRLPRPRPRPGNWPRP,shrunken log2 fold change,0.0527
RRIRARPPRLPRPRPRPRLIPRP,shrunken log2 fold change,0.235
RRIRCRPPRLPRPRPRPQNTPRP,shrunken log2 fold change,-0.691
RRIRQRPPRLPRPRPRPHIPPRP,shrunken log2 fold change,-0.0245
RRIRWRPPRLPRPRPRPEYYPRP,shrunken log2 fold change,-0.13
RRIRKRPPRLPRPRPRPMKHPRP,shrunken log2 fold change,-0.156
RRIRARPPRLPRPRPRPKFYPRP,shrunken log2 fold change,-0.214
RRIRSRPPRLPRPRPRPMNNPRP,shrunken log2 fold change,-0.479
RRIRPRPPRLPRPRPRPGIYPRP,shrunken log2 fold change,-0.133
RRIRWRPPRLPRPRPRPTDRPRP,shrunken log2 fold change,-0.0423
RRIRNRPPRLPRPRPRPFRDPRP,shrunken log2 fold change,0.0452
RRIRYRPPRLPRPRPRPYTFPRP,shrunken log2 fold change,0.041
RRIRHRPPRLPRPRPRPCTEPRP,shrunken log2 fold change,-0.138
RRIRDRPPRLPRPRPRPCPFPRP,shrunken log2 fold change,-0.0587
RRIRGRPPRLPRPRPRPINEPRP,shrunken log2 fold change,0.0939
RRIRQRPPRLPRPRPRPHSMPRP,shrunken log2 fold change,-0.438
RRIRMRPPRLPRPRPRPEWAPRP,shrunken log2 fold change,1.36
RRIRFRPPRLPRPRPRPSYIPRP,shrunken log2 fold change,-0.41
RRIRDRPPRLPRPRPRPDGNPRP,shrunken log2 fold change,-0.00172
RRIRYRPPRLPRPRPRPELSPRP,shrunken log2 fold change,0.0544
RRIRLRPPRLPRPRPRPWWRPRP,shrunken log2 fold change,0.197
RRIRTRPPRLPRPRPRPSSIPRP,shrunken log2 fold change,-0.233
RRIRYRPPRLPRPRPRPSLGPRP,shrunken log2 fold change,-0.297
RRIRDRPPRLPRPRPRPDQSPRP,shrunken log2 fold change,0.0019
RRIRHRPPRLPRPRPRPHKGPRP,shrunken log2 fold change,-0.277
RRIRFRPPRLPRPRPRPYNSPRP,shrunken log2 fold change,-0.136
RRIRMRPPRLPRPRPRPYHKPRP,shrunken log2 fold change,-0.0503
RRIRQRPPRLPRPRPRPEDLPRP,shrunken log2 fold change,0.125
RRIRNRPPRLPRPRPRPVVLPRP,shrunken log2 fold change,-0.179
RRIRPRPPRLPRPRPRPCMMPRP,shrunken log2 fold change,-0.467
RRIRLRPPRLPRPRPRPSIKPRP,shrunken log2 fold change,-0.684
RRIRMRPPRLPRPRPRPKTMPRP,shrunken log2 fold change,-0.0578
RRIRTRPPRLPRPRPRPKIQPRP,shrunken log2 fold change,-0.0936
RRIRFRPPRLPRPRPRPWPCPRP,shrunken log2 fold change,-0.229
RRIRARPPRLPRPRPRPDFQPRP,shrunken log2 fold change,0.149
RRIRGRPPRLPRPRPRPMTKPRP,shrunken log2 fold change,0.524
RRIRTRPPRLPRPRPRPHDKPRP,shrunken log2 fold change,-0.51
RRIRHRPPRLPRPRPRPSSEPRP,shrunken log2 fold change,-0.102
RRIRTRPPRLPRPRPRPMCCPRP,shrunken log2 fold change,-0.182
RRIRQRPPRLPRPRPRPKNWPRP,shrunken log2 fold change,0.139
RRIRKRPPRLPRPRPRPQECPRP,shrunken log2 fold change,-0.00957
RRIRPRPPRLPRPRPRPTGCPRP,shrunken log2 fold change,0.0367
RRIRLRPPRLPRPRPRPDEWPRP,shrunken log2 fold change,-0.0118
RRIRERPPRLPRPRPRPMIQPRP,shrunken log2 fold change,-0.176
RRIRMRPPRLPRPRPRPFNQPRP,shrunken log2 fold change,-0.0903
RRIRYRPPRLPRPRPRPGPVPRP,shrunken log2 fold change,-0.16
RRIRHRPPRLPRPRPRPSLRPRP,shrunken log2 fold change,-0.244
RRIRLRPPRLPRPRPRPELFPRP,shrunken log2 fold change,0.303
RRIRNRPPRLPRPRPRPKMVPRP,shrunken log2 fold change,-0.13
RRIRGRPPRLPRPRPRPEQPPRP,shrunken log2 fold change,1.68
RRIRDRPPRLPRPRPRPQTSPRP,shrunken log2 fold change,0.117
RRIRLRPPRLPRPRPRPLTKPRP,shrunken log2 fold change,-0.0425
RRIRARPPRLPRPRPRPATAPRP,shrunken log2 fold change,0.452
RRIRRRPPRLPRPRPRPRMVPRP,shrunken log2 fold change,0.218
RRIRKRPPRLPRPRPRPSPRPRP,shrunken log2 fold change,1.04
RRIRMRPPRLPRPRPRPVIAPRP,shrunken log2 fold change,0.125
RRIRFRPPRLPRPRPRPAKYPRP,shrunken log2 fold change,-0.381
RRIRYRPPRLPRPRPRPCYTPRP,shrunken log2 fold change,-0.5
RRIRRRPPRLPRPRPRPDCKPRP,shrunken log2 fold change,-0.176
RRIRWRPPRLPRPRPRPAWNPRP,shrunken log2 fold change,0.155
RRIRTRPPRLPRPRPRPWTSPRP,shrunken log2 fold change,0.0106
RRIRFRPPRLPRPRPRPHIIPRP,shrunken log2 fold change,-0.879
RRIRMRPPRLPRPRPRPIVQPRP,shrunken log2 fold change,-0.0131
RRIRFRPPRLPRPRPRPIKKPRP,shrunken log2 fold change,0.0144
RRIRWRPPRLPRPRPRPLRKPRP,shrunken log2 fold change,0.944
RRIRMRPPRLPRPRPRPFVLPRP,shrunken log2 fold change,-0.691
RRIRYRPPRLPRPRPRPASQPRP,shrunken log2 fold change,-0.08
RRIRWRPPRLPRPRPRPIWEPRP,shrunken log2 fold change,0.00194
RRIRVRPPRLPRPRPRPRTEPRP,shrunken log2 fold change,0.165
RRIRCRPPRLPRPRPRPWVLPRP,shrunken log2 fold change,-0.265
RRIRFRPPRLPRPRPRPCFSPRP,shrunken log2 fold change,-0.759
RRIRRRPPRLPRPRPRPTTRPRP,shrunken log2 fold change,0.941
RRIRRRPPRLPRPRPRPHFFPRP,shrunken log2 fold change,0.149
RRIRERPPRLPRPRPRPCRYPRP,shrunken log2 fold change,-0.00318
RRIRIRPPRLPRPRPRPDQTPRP,shrunken log2 fold change,0.000407
RRIRNRPPRLPRPRPRPMLHPRP,shrunken log2 fold change,-0.263
RRIRKRPPRLPRPRPRPDGDPRP,shrunken log2 fold change,3.21
RRIRERPPRLPRPRPRPLINPRP,shrunken log2 fold change,-0.512
RRIRARPPRLPRPRPRPMLYPRP,shrunken log2 fold change,0.249
RRIRNRPPRLPRPRPRPNREPRP,shrunken log2 fold change,0.00564
RRIRERPPRLPRPRPRPRMAPRP,shrunken log2 fold change,0.2
RRIRCRPPRLPRPRPRPEQFPRP,shrunken log2 fold change,0.0372
RRIRWRPPRLPRPRPRPWLSPRP,shrunken log2 fold change,-0.0459
RRIRRRPPRLPRPRPRPYSRPRP,shrunken log2 fold change,-0.391
RRIRHRPPRLPRPRPRPSGTPRP,shrunken log2 fold change,-0.0258
RRIRWRPPRLPRPRPRPARKPRP,shrunken log2 fold change,-0.0849
RRIRIRPPRLPRPRPRPCMAPRP,shrunken log2 fold change,-0.335
RRIRHRPPRLPRPRPRPQNAPRP,shrunken log2 fold change,-0.135
RRIRSRPPRLPRPRPRPTYMPRP,shrunken log2 fold change,-0.55
RRIRNRPPRLPRPRPRPIYPPRP,shrunken log2 fold change,-0.246
RRIRSRPPRLPRPRPRPKNAPRP,shrunken log2 fold change,0.196
RRIRVRPPRLPRPRPRPKFVPRP,shrunken log2 fold change,0.11
RRIRTRPPRLPRPRPRPWLAPRP,shrunken log2 fold change,0.216
